Results reported in patent US20110124556 (published 2011).
Positions of bridges follow the written chain, without caps; N, C: chain ends. Non-standard residues stand in square brackets, D forms with d. Chains are numbered I, II in the order given. No end group written: not given here. Tyr(3-I) = N[C@@H](Cc1ccc(O)c(I)c1)C(=O)O; Hyp = O=C(O)[C@@H]1C[C@@H](O)CN1; Tic = O=C(O)[C@@H]1Cc2ccccc2CN1; Ac6c = NC1(C(=O)O)CCCCC1; βturn = not defined here

Molecular target: human insulin receptor (HIR) (human, UniProt P06213)
Experiment: competition

Kd [nM] | Binder
0.0073 | SLEEEWAQVECEVYGRGCPPGLLDESFYHWFDRQLR [S553]
> 20000 | WGRSFYRYFETLLAQGI [S261]
130 | DWLQRNANFYDWFVAELX (listing feature) [S294]
0.019 | GSLDESFYDWFERQLGGGSGGSWLDEEWAQVQCEVYGRGCPS [S543]
190 | S444 (peptide) chain 1: ESFYDWFERQLGGGGK chain 2: VQCEVYGRGCPS
9.3 | SLEEEWAQIECEVWGRGCPKGFYGWFRRRRG [S584]
700 | S170 (disulfide I:1-II:1; not fully specified; ends not checked) chain 1: CGFHENFYDWFVRQVSKK chain 2: CGFHENFYDWFVRQVSKK
90000 | [Ac6c]CLEE[dW]GASL[Tic]QCSG (not fully specified (bridges); printed as Acy-CLEEwGASL-Tic-QCSG; cysteine pairing not given here) [S256]
0.019 | SLEEEWAQIECEVWGRGCPSESFYDWFERQL [S558]
4.8 | SLEEEWAQIEEVWGRSESFYDWFERQLG [S572]
2.5 | SLEEEWAQIECEVWGRGCPKGFYGWFRRRG [S582]
0.032 | SIEEEWAQIKCDVWGRGCSESFYDWFERQL [S556]
0.094 | SLEEEWAQIQHELWPVEKGESFYDWFERQL (not fully specified (N-terminus); ends and bridges not checked) [S605]

More lines, now with the values behind:

Binder | Kd [nM]
SLEEEWAQVECEVYGRGCPS [S547] | 49
LDRQFYRYFQDLLVGFM [S260] | 2300
S581 (not fully specified; printed as SLEEEWAQIESEVWGR-βturn-ESFYDWFERQLG; ends and bridges not checked) chain 1: SLEEEWAQIESEVWGR-βturn chain 2: ESFYDWFERQLG | 0.012
NANFYDWFVAELG [S241] | 16000
FHENAYDWFVRQVSKK [S219] | > 2000
Ac-SIEEEWAQIKCDVWGRGSESFYDWFERQL (ends and bridges not checked) [S600] | 0.0076
WLDQEWAWVQCEVYGRGCPSGGSGGSGRVDWLQRNANFYDWFVAELG [S511] | 3.8
SLEEEWAQVECEVYGRGCPSESFYDWFVRQLG [S555] | 0.057
FHENFYDAFVRQVSKK [S222] | > 20
WPGYAWLS [S317] | > 20000
SLEEEWAQIQCEVWGRGCPSESFYDWFERQL (not fully specified (N-terminus); ends and bridges not checked) [S606] | 0.004
RD[Hyp]FYDWFDD[dI] [S268] | 450
S423 (ends and bridges not checked; also: two chains joined C-terminus to C-terminus, the link is not given here) chain 1: ESFYDWFERQLGK chain 2: ACAWPTYWNCG | 62
QAPSNFYDWFVREWDEE [S287] | 59
AAAAFYDWFAAAAAKK [S168] | 38
CGFHENFYDWFVRQVSKK (not fully specified; ends and bridges not checked) [S171] | 29000
AFYDWFAK [S180] | > 2000
S591 (protein) chain 1: LEEEWAQIECEVWGRGCSGSLDESF chain 2: LEEEWAQIECEVWGRGCSGSLDESF | 0.13
SSNFYQALMLLS [S129] | 2900
SLEEEWAQIECEVWGRCWHHSFYDWFERQL [S594] | 0.071
SLEEEWAQIECEVWGRGCSESFYDWFERQL [S559] | 0.021
SLEEEWAQIQAEVYGNPNSESFYDWFERQL [S602] | 0.031
[dF][dH][dE][dN][dF][dY][dD][dW][dF][dV][dR][dQ][dV][dS][dK][dK] [S114] | 83000
S441 (peptide) chain 1: ESFYDWFERQLGGGGK chain 2: WAWVQCEVYGRGCPS | 120
LDQEWAQVQCEVYGRGCPSESFYDWFERQL [S533] | 0.067
SLEEEWAQVEAEVYGRGAPSGSLDESFYDWFERQLG [S551] | 0.072
S588 (ends and bridges not checked) chain 1: LEEEWAQVECEV chain 2: [Tyr(3-I)]GRGCSGSLDESFYDWFERQLG | 0.18
S432 (peptide) chain 1: ESFYDWFERQLGGGGK chain 2: CEVYGRGCPS | 180
SLNFYDALQLLAKK [S119] | 18
